Results as given in the supplement of paper PMC11865577.

Legend:
Test in all cases: pull-down binding Z-score (relative to library population); higher = stronger binding
Details in all cases: RNA library: Library-2
[1] = tested on: TO-3-N3 (biotin conjugate)
How it was run: (§1)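 To score binding, a beads-only signal was subtracted, barcoded replicate probes were averaged with the highest and lowest dropped, and the value was converted to a Z-score using the library mean and standard deviation. The input was 1 μg of Cy5- or Cy3-end-labelled RNA library, heat-folded in phosphate/NaCl/KCl buffer and mixed for 60 min at 25 °C with streptavidin beads carrying 100 pmol of biotin-conjugated small molecule. Bound RNA was eluted in hot SDS and hybridised to a DNA barcode microarray at 55.5 °C for 20 h.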

[2] = tested on: TO-3-N3-2 (biotin conjugate)
How it was run: as §1

[3] = tested on: TO-N3 (biotin conjugate)
How it was run: as §1

[4] = tested on: TO-N3-2 (biotin conjugate)
How it was run: as §1

Row | Sequence | pull-down binding Z-score [1] | pull-down binding Z-score [2] | pull-down binding Z-score [3] | pull-down binding Z-score [4]
1 | CAGAGACUUGAAGAUGUCUUUG [IAV_invivo_M1_M2_7_Motif_2+IAV_invivo_M1_M2_7_Motif_2] | -0.637 | -0.362 | -0.897 | -0.242
2 | GCUAUAUGAUGC [IAV_invivo_PA_3_Motif_14+IAV_invivo_PA_3_Motif_14] | -0.0014 | -0.212 | -0.106 | -0.634
3 | GGCCAGGUUUCAAGGCC [IAV_invivo_PA_3_Motif_22+IAV_invivo_PA_3_Motif_22] | -0.64 | -0.644 | -0.785 | -0.29
4 | CUGACAAAGUUUUCAG | 0.631 | -0.329 | 0.341 | -0.543
5 | CAUGAAGUGUGAUCAUUGUGGUGAAACUUCAUG | -0.496 | -0.154 | -0.605 | -0.279
6 | AAUCAAAAAGAGUUGAUU [DMSMaPseq_invitro_SARS-CoV-2_Motif_439] | -0.396 | -0.434 | -0.416 | -1.22
7 | UUAAACACGCUUGUUAAACAACUUAGCUCCAAUUUUGGUGCAAUUUCAAGUGUUUUAA [SHAPE_invivo_SARS-CoV-2_Motif_457] | 0.47 | -0.0371 | 0.301 | -0.627
8 | AUGGUGCUAACAAAGACGGCAUCAU [SHAPE_invivo_SARS-CoV-2_Motif_545] | 0.0674 | -0.105 | -0.143 | -0.639
9 | GGUUGUAUGGUACAAGUAACUUGUGGUACAACU | -0.51 | -0.128 | -0.61 | -0.264
10 | GCGCUGCCAGAAACUGGCCCAGCGC [bulge-CC] | -0.161 | -0.288 | -0.282 | 0.352
11 | AAGAGAAAGUCAACAUCAAUAUUGUUGGUGACUUUAAACUU | 0.608 | -0.0741 | 0.557 | -0.494
12 | GUUUUUGUACACAAUUAAACCGUGCUUUAACUGGAAUAGCUGUUGAACAAGACAAAAAC [DMSMaPseq_invitro_SARS-CoV-2_Motif_424] | 0.247 | -0.127 | 0.21 | -0.336
13 | AUGCCUUUUUACCUUUUGCUAUGGGUAUUAUUGCUAUGUCUGCUUUUGCAAUGAUGUUUGUCAAACAUAAGCAUGCAU [DMSMaPseq_invitro_SARS-CoV-2_Multi_36_ComplexLevel_1] | 0.159 | 0.472 | 0.0122 | -0.261
14 | UGGUAAUGCUGCUAUCAGCGAUUAUGACUACUAUCGUUAUAAUCUACCA | -0.937 | -0.385 | -1.09 | -0.119
15 | GCCACUUGCGAAUUUUGUGGC | 0.0442 | -0.0945 | -0.312 | -0.997
16 | GGUGAAGGACGGGUCCAGUAGUUCGCUACUGUUGAGUAGAGUGUGAGCUCC [BabySpinach] | 1.09 | 0.648 | 2.08 | 2.02
17 | AGUCUUGUAGUGCGUUGUUCGUUCUAUGAAGACU | -0.733 | -0.844 | -0.932 | -1.06
18 | UGGCCCCGAUUUCAGCUAUGGUUA [SHAPE_invitro_SARS-CoV-2_Motif_146] | -0.129 | -0.0487 | -0.032 | 0.341
19 | UGGAGGAAUACAAAUCCA [SHAPE_invitro_SARS-CoV-2_Motif_386] | 0.291 | 0.00658 | 0.109 | -0.404
20 | GCGCUGCCAGAAACUGGCGGGAGCGC [bulge-GGG] | 0.781 | 0.00655 | 0.688 | 0.604
21 | UAGGUGUUUUAAUGUCUAAUUUAGGCAUGCCUUCUUACUGUACUGGUUACAGAGAAGGCUAUUUGAACUCUACUAAUGUCACUAUUGCAACCUA | -0.221 | 0.0583 | -0.0965 | -0.12
22 | ACCUUUAAUUGAAUUGUGCGUGGAUGAGGCUGGUUCUAAAUCACCCAUUCAGUACAUCGAUAUCGGU [SHAPE_invivo_SARS-CoV-2_Motif_532] | -0.881 | -0.862 | -1.07 | -0.962
23 | CCCCACUACAAUUGGGG [IAV_invivo_HA_4_Motif_4+IAV_invivo_HA_4_Motif_4] | 0.245 | -0.517 | -0.0989 | -1.27
24 | GCGCUUCAGCGUUCUUCGGAAUGUCGCGC | -0.429 | -0.453 | -0.787 | -0.654
25 | CUUUGAUAAAGCUGGUCAAAAGACUUAUGAAAG | -0.814 | -0.4 | -0.947 | -0.816
26 | GUGGGGUAUUCAUCACCCGC [IAV_invivo_HA_4_Motif_9+IAV_invivo_HA_4_Motif_9] | 1.69 | 0.689 | 1.62 | 0.897
27 | CAUGUGGUAGUGUUGGUUUUAACAUAGAUUAUGACUGUGUCUCUUUUUGUUACAUGCACCAUAUG | 1.54 | 0.0495 | 1.48 | -0.00779

Row | Sequence | pull-down binding Z-score [1] | pull-down binding Z-score [2] | pull-down binding Z-score [3] | pull-down binding Z-score [4]
28 | CUGAUCCUAGUUUUCUGGGUAG [SHAPE_invivo_SARS-CoV-2_Motif_108] | -0.135 | -0.369 | -0.0828 | -0.359
29 | UGUGACUGGACA [SHAPE_invivo_SARS-CoV-2_Motif_313] | 0.86 | -0.233 | 0.774 | -0.14
30 | GAUGUAGAAUUGUUUGAAAAUAAAACAACAUU | -0.783 | -0.136 | -0.878 | -0.444
31 | AUGUACUUGGAUUGGCUGCAAUCAUGCAAUUGUUUUUCAGCUAUUUUGCAGUACAU | -0.182 | -0.577 | -0.401 | -0.271
32 | GUGCACUUGACCCUCUCUCAGAAACAAAGUGUAC [SHAPE_invivo_SARS-CoV-2_Motif_422] | 0.278 | -0.137 | 0.229 | -0.312
33 | UAUAAUAUGAGAGUUAUA | -0.11 | -0.355 | -0.233 | -0.882
34 | AAAUUUUUGGCUUUGUGUGCUGACUCUAUCAUUAUUGGUGGAGCUAAACUUAAAGCCUUGAAUUU [SHAPE_invivo_SARS-CoV-2_Motif_45] | 0.0535 | -0.123 | -0.00867 | -0.994
35 | GGCCUGGGCCUGGGCCUGGGCCUGGGCCUGGGCCUG [r(GGCCUG)6] | 0.00804 | -0.435 | -0.184 | 0.12
36 | GCAGCCAAACUAAUGGUUGU | 0.609 | 0.228 | 0.574 | 0.312
37 | GCUGUGAGUUGGAUACUUACCUG [U1snRNP5ss-13] | 0.0032 | 0.194 | 0.947 | 1.38
38 | GCACCUCAUGGUGU | 0.707 | -0.649 | 0.66 | -0.856
39 | CACUAAAAAGUGGAAAUACCCACAAGUUAAUG | -0.634 | -0.22 | -0.552 | -0.609
40 | UGGGGAGUUGAACCUA [IAV_invivo_PB2_1_Motif_19+IAV_invivo_PB2_1_Motif_19] | 0.448 | 0.0385 | 0.376 | -0.437
41 | AGGUUGGACAGCUGGUGCUGCAGCUU [SHAPE_invivo_SARS-CoV-2_Motif_420] | 0.658 | 0.159 | 0.754 | 0.891
42 | GCAUGAUGUUUCAUCUGC | 1.18 | 0.0512 | 0.951 | -0.496
43 | AUUAGAGAAAACAACAGAGUUGUUAUUUCUAGU [DMSMaPseq_invitro_SARS-CoV-2_Motif_378] | 0.0547 | -0.0987 | -0.17 | -0.787
44 | CCACAUAGAUCAUCCAAAUCCUAAAGGAUUUUGUGACUUAAAAGG [SHAPE_invivo_SARS-CoV-2_Motif_251] | -0.167 | -0.357 | -0.169 | -0.137
45 | UAGACAAUUCUAGUCUUACUAUUAAGAAACCUAAUGAAUUAUCUA [SHAPE_invivo_SARS-CoV-2_Motif_135] | -1.02 | -0.287 | -1.27 | -1.41
46 | AACACUUCCCACAGAAGUGUU | -0.222 | -0.407 | 0.0543 | -0.817
47 | ACAGCAGAGUGCUGU [IAV_invivo_M1_M2_7_Motif_17+IAV_invivo_M1_M2_7_Motif_17] | -0.599 | -0.794 | -0.887 | -1.37
48 | GGUUUAUACCUUCCCAGGUAACAAACC | -0.697 | -0.582 | -0.928 | -1.05
49 | ACAAGUUGCAAUUUACAAGUCUUGAAAUUCCACGUAGGAAUGUGGCAACUUUACAAGCUGAAAAUGUAACAGGACUCUUUAAAGAUUGU | -0.302 | 0.247 | -0.143 | 0.121
50 | AUAUGUUUACACCACUAAUUCAACCUAUUGGUGCUUUGGACAUAU [DMSMaPseq_invitro_SARS-CoV-2_Motif_171] | -0.425 | -0.311 | -0.635 | -0.719
51 | GGGAAGAACACC [IAV_invivo_M1_M2_7_Motif_3+IAV_invivo_M1_M2_7_Motif_3] | 1.13 | 5.36e-05 | 0.899 | -0.0552
52 | CUCUUGUAAUGUAAACAGAUUUAAUGUUGCUAUUACCAGAG | 0.0416 | -0.0635 | 0.0725 | -0.0897
53 | GGGAGAGACGAACAGUCGAUUGCC [IAV_invivo_PB2_1_Motif_17+IAV_invivo_PB2_1_Motif_17] | -0.434 | -0.268 | 0.0259 | 0.839
54 | CCUUACCCAGAUCCAUCAAGAAUCCUAGGGGCCGG | 0.842 | 0.14 | 0.876 | 0.308
